# Assay results taken from patent US20240238446.
# B1: mouse Factor I in mouse serum (protein)
# chain: RSPSASDLPQEELVDQKCLLQKYTHRSCNKVFCQPWQRCIEGTCICKLPYQCPRAGTPVCAMNGRSYPTYCHQKSFECLHPEIKFSHNGTCAAEGKFNVSLIYGRTKTEGLVQVKLVDQDERMFICKNSWSMAEANVACVDLGFPLGVRDIQGSFNISGNLHINDTECLHVHCRGVETSLAECAFTKRRTELSNGLAGVVCYKQDADFPTSLSFQCVNGKHIPQEKACNGVNDCGDQSDELCCKGCRGNASLCKSGVCIPDQYKCNGEVDCITGEDESRCEEDRQQNIPKGLARSAQGEAEIETEETEMLTPGMDNERKRIKSLLPKLSCGVKRNTHTRRKRVIGGKPANVGDYPWQVAIKDGQRITCGGIYIGGCWILTAAHCVRPSRAHSYQVWTALLDWLKPNSQLGIQTVKRVIVHEKYNGATFQNDIALIEMKMHTGKKECELPNSVPACVPWSPYLFQPNDRCIISGWGRGKDNQKVYSLRWGEVDLIGNCSQFYPDRYYEKEMQCAGTRDGSIDACKGDSGGPLVCEDINNVTYVWGIVSWGENCGKPEFPGVYTRVANYFDWISYHVGRSLVSQHNV
# Key:
# [1] = molecular target: human C3b, P01024
# Sequence of human C3b, P01024 (P01024 whole entry, looked up): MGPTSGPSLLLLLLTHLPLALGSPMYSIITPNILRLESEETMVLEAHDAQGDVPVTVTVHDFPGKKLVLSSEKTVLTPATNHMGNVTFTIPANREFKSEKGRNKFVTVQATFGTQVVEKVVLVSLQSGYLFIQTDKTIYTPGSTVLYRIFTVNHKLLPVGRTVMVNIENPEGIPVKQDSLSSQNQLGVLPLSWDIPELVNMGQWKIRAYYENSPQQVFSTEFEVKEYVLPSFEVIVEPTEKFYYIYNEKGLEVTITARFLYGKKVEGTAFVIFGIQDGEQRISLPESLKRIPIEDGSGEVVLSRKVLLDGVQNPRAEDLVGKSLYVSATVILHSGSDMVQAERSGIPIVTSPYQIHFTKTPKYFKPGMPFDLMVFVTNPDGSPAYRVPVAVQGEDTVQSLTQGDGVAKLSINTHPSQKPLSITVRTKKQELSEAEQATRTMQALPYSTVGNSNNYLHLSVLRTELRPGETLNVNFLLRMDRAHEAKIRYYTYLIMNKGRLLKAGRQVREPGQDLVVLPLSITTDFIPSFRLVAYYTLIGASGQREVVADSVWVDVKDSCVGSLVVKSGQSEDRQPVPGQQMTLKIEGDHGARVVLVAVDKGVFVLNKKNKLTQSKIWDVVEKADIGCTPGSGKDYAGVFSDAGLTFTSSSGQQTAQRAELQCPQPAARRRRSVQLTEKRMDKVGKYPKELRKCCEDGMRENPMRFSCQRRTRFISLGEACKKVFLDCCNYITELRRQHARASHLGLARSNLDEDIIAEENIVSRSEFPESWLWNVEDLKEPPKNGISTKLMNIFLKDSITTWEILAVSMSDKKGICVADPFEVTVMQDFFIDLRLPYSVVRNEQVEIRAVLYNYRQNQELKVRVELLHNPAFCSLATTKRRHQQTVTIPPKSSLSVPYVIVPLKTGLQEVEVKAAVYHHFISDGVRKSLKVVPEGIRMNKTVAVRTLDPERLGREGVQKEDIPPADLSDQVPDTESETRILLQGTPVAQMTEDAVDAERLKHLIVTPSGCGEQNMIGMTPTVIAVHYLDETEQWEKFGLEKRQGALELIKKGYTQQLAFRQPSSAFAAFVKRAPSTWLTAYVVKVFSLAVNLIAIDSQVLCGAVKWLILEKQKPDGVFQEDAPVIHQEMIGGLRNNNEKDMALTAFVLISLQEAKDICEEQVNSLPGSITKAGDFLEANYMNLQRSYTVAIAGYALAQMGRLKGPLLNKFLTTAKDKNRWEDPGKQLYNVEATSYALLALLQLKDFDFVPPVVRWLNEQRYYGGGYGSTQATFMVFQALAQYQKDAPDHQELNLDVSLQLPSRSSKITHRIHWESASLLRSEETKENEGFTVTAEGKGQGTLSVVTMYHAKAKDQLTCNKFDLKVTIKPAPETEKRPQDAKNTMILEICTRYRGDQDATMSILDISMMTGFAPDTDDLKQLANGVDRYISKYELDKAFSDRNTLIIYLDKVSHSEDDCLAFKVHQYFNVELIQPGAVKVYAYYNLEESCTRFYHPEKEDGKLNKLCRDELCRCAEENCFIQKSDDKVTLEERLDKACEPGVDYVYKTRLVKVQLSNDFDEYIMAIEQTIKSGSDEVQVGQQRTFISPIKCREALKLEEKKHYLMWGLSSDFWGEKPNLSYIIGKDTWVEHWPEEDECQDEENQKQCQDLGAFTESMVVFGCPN
# [2] = molecular target: mouse C3b/iC3b deposited from mouse serum on LPS, P01027
# Sequence of mouse C3b/iC3b deposited from mouse serum on LPS, P01027 (P01027 25-1663): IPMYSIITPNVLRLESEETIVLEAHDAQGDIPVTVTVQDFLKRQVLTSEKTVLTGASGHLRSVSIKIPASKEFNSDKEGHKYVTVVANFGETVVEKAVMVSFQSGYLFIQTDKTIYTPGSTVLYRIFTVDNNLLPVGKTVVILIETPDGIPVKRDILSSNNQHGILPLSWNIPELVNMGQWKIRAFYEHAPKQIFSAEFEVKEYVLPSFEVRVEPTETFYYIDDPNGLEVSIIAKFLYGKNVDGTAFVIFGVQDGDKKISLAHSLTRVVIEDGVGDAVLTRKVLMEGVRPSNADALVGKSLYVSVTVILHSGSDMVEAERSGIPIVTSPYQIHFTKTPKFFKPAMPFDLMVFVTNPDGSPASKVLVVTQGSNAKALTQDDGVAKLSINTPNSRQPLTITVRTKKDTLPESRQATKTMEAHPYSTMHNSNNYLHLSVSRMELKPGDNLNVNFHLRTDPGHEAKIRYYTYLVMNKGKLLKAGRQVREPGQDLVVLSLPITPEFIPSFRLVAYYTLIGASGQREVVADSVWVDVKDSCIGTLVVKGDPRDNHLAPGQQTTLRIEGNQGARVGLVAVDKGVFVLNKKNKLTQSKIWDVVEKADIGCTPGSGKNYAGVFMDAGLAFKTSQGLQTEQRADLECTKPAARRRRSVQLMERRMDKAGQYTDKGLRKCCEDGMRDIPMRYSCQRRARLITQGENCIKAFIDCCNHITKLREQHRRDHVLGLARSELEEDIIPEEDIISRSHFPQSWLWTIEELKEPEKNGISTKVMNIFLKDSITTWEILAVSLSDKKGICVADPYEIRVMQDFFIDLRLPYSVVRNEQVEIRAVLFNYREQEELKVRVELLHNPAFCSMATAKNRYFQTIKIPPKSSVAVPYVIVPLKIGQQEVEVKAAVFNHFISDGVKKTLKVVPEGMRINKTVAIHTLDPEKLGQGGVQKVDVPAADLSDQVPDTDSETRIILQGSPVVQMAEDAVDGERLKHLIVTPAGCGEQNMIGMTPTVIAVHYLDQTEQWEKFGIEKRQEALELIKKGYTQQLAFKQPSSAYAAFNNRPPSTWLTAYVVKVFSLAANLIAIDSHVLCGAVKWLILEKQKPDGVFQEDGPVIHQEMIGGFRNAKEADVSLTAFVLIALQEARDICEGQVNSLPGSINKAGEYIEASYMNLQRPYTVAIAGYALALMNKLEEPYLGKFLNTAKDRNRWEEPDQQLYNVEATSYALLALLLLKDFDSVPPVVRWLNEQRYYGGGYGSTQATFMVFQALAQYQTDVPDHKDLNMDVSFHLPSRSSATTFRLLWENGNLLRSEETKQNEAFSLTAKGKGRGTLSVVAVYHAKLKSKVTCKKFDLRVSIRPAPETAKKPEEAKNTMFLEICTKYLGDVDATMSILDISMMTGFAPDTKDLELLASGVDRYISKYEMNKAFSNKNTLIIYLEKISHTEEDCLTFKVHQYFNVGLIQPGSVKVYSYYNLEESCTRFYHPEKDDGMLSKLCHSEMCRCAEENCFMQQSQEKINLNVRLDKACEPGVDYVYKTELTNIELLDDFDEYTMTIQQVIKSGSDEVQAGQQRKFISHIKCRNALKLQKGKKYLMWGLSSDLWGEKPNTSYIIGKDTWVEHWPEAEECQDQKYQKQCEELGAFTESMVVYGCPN
protein,measurement,setting,value
B1,"in vitro C3b and iC3b cleavage assay (western blot with clone 9, generation of C3dg; human Factor H as cofactor, 30 minutes)",[1],more efficiently cleaved to C3dg within the incubation period in the AAV_FI medium and AAV_FI high group
same,"C3b/iC3b deposition on LPS-coated plate, reduction, serum of AAV high FI group",[2],by 50% in the AAV % high FI group
same,"C3b/iC3b deposition on LPS-coated plate, reduction, serum of AAV_low FI group",[2],reduced by 11% in the AAV_low FI
same,"C3b/iC3b deposition on LPS-coated plate, reduction, serum of AAV_medium FI group",[2],by 38% in the AAV_medium FI
